Results on one molecule are retold here after paper doi:10.1101/2024.01.22.576655 (bioRxiv, 2024).

The target of data set [1] is Ribosomal protein L29 (Escherichia coli (endogenous in …, UniProt P0A7M6 1-63)). Briefly: cross-linking.
Data set [2] concerns the molecule itself. Briefly: cross-linking.

B1: DnaJ, recombinant (natural protein, Escherichia coli, UniProt P08622 1-376, looked up)
chain: MAKQDYYEILGVSKTAEEREIRKAYKRLAMKYHPDRNQGDKEAEAKFKEIKEAYEVLTDSQKRAAYDQYGHAAFEQGGMGGGGFGGGADFSDIFGDVFGDIFGGGRGRQRAARGADLRYNMELTLEEAVRGVTKEIRIPTLEECDVCHGSGAKPGTQPQTCPTCHGSGQVQMRQGFFAVQQTCPHCQGRGTLIKDPCNKCHGHGRVERSKTLSVKIPAGVDTGDRIRLAGEGEAGEHGAPAGDLYVQVQVKQHPIFEREGNNLYCEVPINFAMAALGGEIEVPTLDGRVKLKVPGETQTGKLFRMRGKGVKSVRGGAQGDLLCRVVVETPVGLNERQKQLLQELQESFGGPTGEHNSPRSKSFFDGVKKFFDDLTR
With B1, the binding result in data set [1] and in data set [2] was “binds” each time.
